# In patent US12012599B2, “Compositions and methods for modulating left-right differentiation factor (LEFTY) and bone morphogenic factor (BMP)” (CZ Biohub SF LLC, priority 2018, dated 2024):
# Tested on: mammary epithelial cells
# Assay: 3D organotypic mammary organoid formation
# Type: cell-based, mouse
# Conditions: for organoid formation (frequency, number of colonies): Wnt-dependent organoid culture
# Procedure: FIGS. 8A-8D. Autocrine and paracrine effects of NODAL and LEFTY1 in mammary epithelial cell populations. […] The sorted cells were grown in the 3D organotypic assays to test their organoid formation potential in the presence of NODAL. […] Each dot represents an organoid (n=3). […] Data are represented as median±S.D. Statistical analysis, One-way ANOVA with Dunnet's adjustment, **p<0.01.
# FIGS. 9A-9F. Opposing effects of LEFTY1 and BMP7 in mammary organoid formation. […] Data are represented as median±S.D. Statistical analysis, one-way ANOVA with Dunnet's adjustment, *p<0.05; **p<0.01; ***p<0.001.
# Since LEFTY1 and BMP7 were able to affect the branching of mammary glands, we hypothesized that the LEFTY1/BMP7 signaling axis may affect the proliferation of mammary epithelial cells. We exposed freshly dissociated mammary epithelial cells to NODAL, LEFTY1, BMP7 and CRIPTO-1 in a modified Wnt-dependent in vitro organoid culture system that was optimized for progenitor cell propagation (Zeng & Nusse, Cell Stem Cell 6, 568-577 (2010) and Jamieson et al., Development 144, 1065-1071 (2017)). In Xenopus, Wnt signaling controls the expression of Nodal and Cripto-1 during gastrulation. Consistent with the evolutionary conservation of the interaction between the Nodal and Wnt pathways (Branford et al., Curr Biol 12, 2136-2141 (2002)), NODAL had no effect on organoid formation in our Wnt-driven culture system (FIG. 8A).
# In organoid cultures, the basal cells give rise to mixed phenotype colonies of luminal and basal cells. To prevent the formation of LEFTY1-expressing cells during organoid formation, genetic knockdown of LEFTY1 was done. To knock-down mouse LEFTY1, pSICO-R lentiviral vector was used (Ventura, PNAS, 2004). Different shRNAs were designed and cloned into pSICO-R. The target sequences of the shRNAs cloned were GGACAAGGCTGATGTGGAA (SEQ ID NO: 14) and GCAGGTTCCTGGTGTCAGA (SEQ ID NO: 15). The efficiency of knock-down was tested by transfecting HEK293T cells with pSICO-R-shLEFTY1 constructs with pEGFP-C3-LEFTY1 at 1:4 and 1:20 ratio. Decrease on GFP signal was used to calculate the percentage of inhibition of the shLEFTY sequences. […] (p<0.001 and p<0.01, respectively) (FIGS. 8C-8D and FIGS. 9E-9F).
molecule,measurement,setting,value
"CRIPTO-1: soluble EGF-CFC Nodal co-receptor (protein, UniProt P13385 31-150, looked up) Protein Cripto: LGHQEFARPSRGYLAFRDDSIWPQEEPAIRPRSSQRVPPMGIQHSKELNRTCCLNGGTCMLGSFCACPPSFYGRNCEHDVRKENCGSVPHDTWLPKKCSLCKCWHGQLRCFPQAFLPGCD","organoid formation (frequency, number of colonies)",,did not have a significant effect
same,effect on LEFTY1's increase of organoid formation,in combination with LEFTY1,enhanced
"NODAL: TGF-β family ligand that induces phosphorylation of SMAD2/3 (protein, UniProt Q96S42 238-347, looked up) Nodal homolog: HHLPDRSQLCRKVKFQVDFNLIGWGSWIIYPKQYNAYRCEGECPNPVGEEFHPTNHAYIQSLLKRYQPHRVPSTCCAPVKTKPLSMLYVDNGRVLLDHHKDMIVEECGCL","organoid formation (frequency, number of colonies)",,no effect
